Test results reported in patent publication US7919295B2, “Polyol oxidases” (Danisco US Inc., priority 2006, dated 2011).

How the values were obtained:
[1] = Substrate range study: SCO6147 SOx activity on D-sorbitol versus D-xylitol; format: biochemical, Streptomyces lividans; conditions: SOx transformed in S. lividans; substrates 50 mM, pH 7.0
Protocol: Sorbitol oxidase obtained using the methods described in Example 1, was tested for finding its activity with various polyol substrates. All substrates used in the assay were 50 mM in 10 mM phosphate buffer pH 7.0. The relative activity using sorbitol as (++++++=100%) is shown below in Table 3.

[2] = cited from earlier work
[3] = Stability and bleaching performance of SOx in HDL laundry wash conditions
From the text: In this Example, methods to determine the stability and bleaching performance of SOx (produced as described above) in AATCC liquid detergent laundry wash conditions are described. In these experiments, AATCC standard detergent (American Association of Textile Chemists and Colorists Heavy Duty Liquid Detergent Version 2003 without brightener; key components include linear alkane sulfonate, alcohol ethoxylate, propanediol, citric acid, fatty acid, castic soda and water; Testfabrics) was used.
Three bleachable cotton swatches with juice (STC CFT CS-15), wine (STC CFT CS-3), and tea (STC CFT BC-3) were used. The swatches were cut into 15 mm circles with a textile punch (Model B equipped with a ⅝″ die cutter; Model 93046; NAEF).
Single swatch disks were placed into each well of a 24-well microplate (Costar 3526). One (1) ml of washing solution pH 8, containing per liter, 1.5 ml AATCC HDL detergent, 75-100 mM sorbitol, 6 gpg hardness (diluted from stock 15000 gpg hardness solution containing 1.735 M calcium chloride and 0.67 M magnesium chloride), and 0.05% TAED (tetraacetylethylenediamine, Fluka) was added to each well. Five to fifty (5-50 ul) microliters of partially purified sorbitol oxidase or sorbitol oxidase obtain from a late fermentation run (108 hr EFT “effective fermentation time”) produced as described in Examples 1 and 2, were added with a positive displacement pipette to 3-8 wells in one column. The control wells contained no enzyme. The microplate was covered with a plastic lid and aluminum foil and incubated at 37° C. with 100 rpm gentle rotation for 14 hr. […]
One hundred microliters (100 ul) of 0.1 mM sodium carbonate were added to each well to elevate the pH to 10. […] The disks were inspected visually and then analyzed with a Reflectometer CR-200 (Minolta) calibrated on a standard white tile. The average L values were calculated as was the percent soil release (% SR=100%×(Final reflectance-Initial reflectance)/(Reflectance of a white standard-Initial reflectance). Graphs showing the results of these experiments are provided in FIGS. 5-8.

B1: POx of SEQ ID NO:4: sorbitol oxidase of Streptomyces lividans, gene identified from S. coelicolor SCO6147, expressed intracellularly in S. lividans g3s3 (protein)
chain: MGDITVTNWAGNITYTAKELLRPHSLDALRALVADSARVRVLGSGHSFNEIAEPGDGGVLLSLAGLPSVVDVDTAARTVRVGGGVRYAELARVVHARGLALPNMASLPHISVAGSVATGTHGSGVGNGSLASVVREVELVTADGSTVVIARGDERFGGAVTSLGALGVVTSLTLDLEPAYEMEQHVFTELPLAGLDPATFETVMAAAYSVSLFTDWRAPGFRQVWLKRRTDRPLDGFPYAAPAAEKMHPVPGMPAVNCTEQFGVPGPWHERLPHFRAEFTPSSGAELQSEYLMPREHALAALHAMDAIRETLAPVLQTCEIRTVAADAQWLSPAYGRDTVAAHFTWVEDTAAVLPVVRRLEEALVPFAARPHWGKVFTVPAGELRALYPRLADFGALAGALDPAGKFTNAFVRGVLAG
modifications: Streptomyces lividans
notes: sorbitol oxidase of Streptomyces lividans, gene identified from S. coelicolor SCO6147, expressed intracellularly in S. lividans g3s3
activity on D-sorbitol relative to D-xylitol [1]: 2.1 times

B2: sorbitol oxidase from Streptomyces species H-7775: sorbitol oxidase of Streptomyces species H-7775, Genbank AB000519, 420 amino acids (protein)
chain: MTPAEKNWAGNITFGAKRLCVPRSVRELRETVAASGAVRPLGTRHSFNTVADTSGDHVSLAGLPRVVDIDVPGRAVSLSAGLRFGEFAAELHARGLALANLGSLPHISVAGAVATGTHGSGVGNRSLAGAVRALSLVTADGETRTLRRTDEDFAGAVVSLGALGVVTSLELDLVPAFEVRQWVYEDLPEATLAARFDEVMSAAYSVSVFTDWRPGPVGQVWLKQRVGDEGARSVMPAEWLGARLADGPRHPVPGMPAGNCTAQQGVPGPWHERLPHFRMEFTPSNGDELQSEYFVARADAVAAYEALARLRDRIAPVLQVSELRTVAADDLWLSPAHGRDSVAFHFTWVPDAAAVAPVAGAIEEALAPFGARPHWGKVFSTAPEVLRTLYPRYADFEELVGRHDPEGTFRNAFLDRYFRR
modifications: Streptomyces H-7775
notes: sorbitol oxidase of Streptomyces species H-7775, Genbank AB000519, 420 amino acids
pH range in which enzyme is stable ([2]; 24 hours at 30° C.): 7.5-10 pH
optimum temperature ([2]; at pH 7.5): 50 °C

B3: sorbitol oxidase: partially purified sorbitol oxidase or fermentation broth cell lysate (108 hr EFT) used for biobleaching (protein)
chain: MTPAEKNWAGNITFGAKRLCVPRSVRELRETVAASGAVRPLGTRHSFNTVADTSGDHVSLAGLPRVVDIDVPGRAVSLSAGLRFGEFAAELHARGLALANLGSLPHISVAGAVATGTHGSGVGNRSLAGAVRALSLVTADGETRTLRRTDEDFAGAVVSLGALGVVTSLELDLVPAFEVRQWVYEDLPEATLAARFDEVMSAAYSVSVFTDWRPGPVGQVWLKQRVGDEGARSVMPAEWLGARLADGPRHPVPGMPAGNCTAQQGVPGPWHERLPHFRMEFTPSNGDELQSEYFVARADAVAAYEALARLRDRIAPVLQVSELRTVAADDLWLSPAHGRDSVAFHFTWVPDAAAVAPVAGAIEEALAPFGARPHWGKVFSTAPEVLRTLYPRYADFEELVGRHDPEGTFRNAFLDRYFRR
modifications: Streptomyces H-7775
notes: partially purified sorbitol oxidase or fermentation broth cell lysate (108 hr EFT) used for biobleaching
stability in typical liquid detergent system ([3]; AATCC HDL detergent, pH 8, 37° C., 14 hr): stable
hydrogen peroxide production in detergent ([3]; in presence of sorbitol mixed with detergent and atmospheric oxygen): able to produce effective concentration of hydrogen peroxide
bleaching of colored stains ([3]; with bleach booster TAED, blueberry, tea and wine stains, FIGS. 5-8): able to help bleach
